Measured values reported in paper PMC6237275.

Target: His–CtBP1 (UniProt Q13363)
Assay: SEC

stoichiometry N: 2
Substance: His–CtBP1 (from UniProt Q13363 1-440) (natural protein)
